Key:
Conditions in all cases: protein: recombinant;recombinant; tags: FLAG-HA;His; copies: 1;1; label: radiolabelled; fork: 29 bp duplex (S3[1-29] with S4[22-50]), unpaired arms 21 nt (3' of S3) and 21 nt (5' of S4)
[1] = target: FANCD2-10D;FANCI (human?;human?, UniProt Q9BXW9;Q9NVI1 1-1451;1-1328, S64D;S178D;S319D;T596D;T608D;S705D;S1257D;S1401D;S1404D;S1418D|); assay: EMSA; stronger than WT and 10A; 25 mM Tris-HCl pH 7.5, 100 mM NaCl, 1 mM EDTA, 6% glycerol, 1 mM DTT, 1 nM DNA, room temperature 60-90 min; 4% PAGE 0.4x TBE at 4 C
Sequence of FANCD2-10D;FANCI (Q9BXW9 whole entry S64D/S178D/S319D/T596D/T608D/S705D/S1257D/S1401D/S1404D/S1418D, chain 1 of 2): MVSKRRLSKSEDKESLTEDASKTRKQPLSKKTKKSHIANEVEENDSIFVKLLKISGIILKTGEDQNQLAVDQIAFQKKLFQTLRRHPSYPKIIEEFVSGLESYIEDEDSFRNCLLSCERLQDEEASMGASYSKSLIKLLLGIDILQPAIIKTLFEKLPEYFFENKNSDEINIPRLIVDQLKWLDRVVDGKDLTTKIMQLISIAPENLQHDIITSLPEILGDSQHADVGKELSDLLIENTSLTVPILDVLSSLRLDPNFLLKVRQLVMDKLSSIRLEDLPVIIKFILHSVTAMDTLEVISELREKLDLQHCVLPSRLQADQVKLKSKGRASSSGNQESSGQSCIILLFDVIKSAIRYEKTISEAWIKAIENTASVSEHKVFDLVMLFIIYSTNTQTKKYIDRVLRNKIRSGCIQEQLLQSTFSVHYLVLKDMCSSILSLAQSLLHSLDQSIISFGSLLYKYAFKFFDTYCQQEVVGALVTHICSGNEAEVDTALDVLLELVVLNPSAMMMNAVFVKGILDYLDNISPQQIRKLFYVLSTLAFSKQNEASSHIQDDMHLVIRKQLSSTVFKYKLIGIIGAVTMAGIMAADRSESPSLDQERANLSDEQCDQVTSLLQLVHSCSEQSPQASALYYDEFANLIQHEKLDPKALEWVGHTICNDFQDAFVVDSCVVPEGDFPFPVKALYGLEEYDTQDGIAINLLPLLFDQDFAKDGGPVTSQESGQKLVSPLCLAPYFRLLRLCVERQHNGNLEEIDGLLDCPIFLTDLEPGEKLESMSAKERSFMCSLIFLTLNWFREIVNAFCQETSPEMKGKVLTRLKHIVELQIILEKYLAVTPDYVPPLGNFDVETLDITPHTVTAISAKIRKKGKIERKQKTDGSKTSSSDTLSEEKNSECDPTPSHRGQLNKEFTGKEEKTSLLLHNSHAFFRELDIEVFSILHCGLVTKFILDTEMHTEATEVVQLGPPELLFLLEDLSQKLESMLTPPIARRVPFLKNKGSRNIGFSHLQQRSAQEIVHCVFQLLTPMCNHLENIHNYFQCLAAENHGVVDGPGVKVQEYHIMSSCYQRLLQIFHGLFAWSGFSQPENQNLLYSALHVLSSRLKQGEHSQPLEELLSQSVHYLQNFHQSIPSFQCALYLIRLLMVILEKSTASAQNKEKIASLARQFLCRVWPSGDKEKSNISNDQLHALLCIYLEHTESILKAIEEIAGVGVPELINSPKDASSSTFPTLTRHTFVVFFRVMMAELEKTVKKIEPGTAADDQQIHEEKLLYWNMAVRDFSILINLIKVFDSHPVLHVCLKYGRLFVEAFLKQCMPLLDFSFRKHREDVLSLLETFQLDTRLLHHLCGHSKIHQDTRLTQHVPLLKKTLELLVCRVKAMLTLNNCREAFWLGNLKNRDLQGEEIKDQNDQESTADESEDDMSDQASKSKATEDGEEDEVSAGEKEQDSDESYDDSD
Sequence of FANCD2-10D;FANCI (Q9NVI1 whole entry, chain 2 of 2): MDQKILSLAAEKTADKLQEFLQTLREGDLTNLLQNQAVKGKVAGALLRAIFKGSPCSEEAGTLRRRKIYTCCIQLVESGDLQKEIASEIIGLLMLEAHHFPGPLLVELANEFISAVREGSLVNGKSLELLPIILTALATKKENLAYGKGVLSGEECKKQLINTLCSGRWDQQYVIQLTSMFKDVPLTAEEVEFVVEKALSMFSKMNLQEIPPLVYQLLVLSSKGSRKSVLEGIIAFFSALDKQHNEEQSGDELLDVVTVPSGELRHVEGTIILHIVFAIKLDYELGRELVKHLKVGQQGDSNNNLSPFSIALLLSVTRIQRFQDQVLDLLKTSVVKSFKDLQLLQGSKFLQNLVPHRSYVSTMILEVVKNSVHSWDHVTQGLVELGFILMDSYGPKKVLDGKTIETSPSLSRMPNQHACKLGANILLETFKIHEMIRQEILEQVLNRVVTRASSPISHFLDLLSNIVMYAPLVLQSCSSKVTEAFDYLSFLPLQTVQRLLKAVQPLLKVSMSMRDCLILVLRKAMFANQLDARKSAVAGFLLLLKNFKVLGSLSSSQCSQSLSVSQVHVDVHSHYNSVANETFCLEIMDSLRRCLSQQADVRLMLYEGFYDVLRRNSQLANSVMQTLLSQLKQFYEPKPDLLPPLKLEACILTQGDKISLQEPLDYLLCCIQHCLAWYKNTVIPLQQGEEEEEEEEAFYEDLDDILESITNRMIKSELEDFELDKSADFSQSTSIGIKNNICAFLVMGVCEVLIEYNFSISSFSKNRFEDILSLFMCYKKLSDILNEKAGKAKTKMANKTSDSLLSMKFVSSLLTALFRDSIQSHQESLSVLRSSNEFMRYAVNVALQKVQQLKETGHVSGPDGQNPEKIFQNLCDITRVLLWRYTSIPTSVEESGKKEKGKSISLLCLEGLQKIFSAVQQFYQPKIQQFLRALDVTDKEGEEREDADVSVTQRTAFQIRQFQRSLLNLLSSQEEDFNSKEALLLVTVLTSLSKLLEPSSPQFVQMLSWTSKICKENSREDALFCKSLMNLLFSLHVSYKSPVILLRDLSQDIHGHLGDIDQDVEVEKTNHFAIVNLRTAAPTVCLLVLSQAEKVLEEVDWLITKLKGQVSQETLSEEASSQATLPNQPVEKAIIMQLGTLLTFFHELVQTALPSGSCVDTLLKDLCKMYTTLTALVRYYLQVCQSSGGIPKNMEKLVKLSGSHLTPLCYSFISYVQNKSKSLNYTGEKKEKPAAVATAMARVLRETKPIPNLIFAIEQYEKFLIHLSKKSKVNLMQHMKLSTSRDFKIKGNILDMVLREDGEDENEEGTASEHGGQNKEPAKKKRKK

[2] = target: FANCD2-10A;FANCI (human?;human?, UniProt Q9BXW9;Q9NVI1 1-1451;1-1328, S64A;S178A;S319A;T596A;T608A;S705A;S1257A;S1401A;S1404A;S1418A|); assay: EMSA; 25 mM Tris-HCl pH 7.5, 100 mM NaCl, 1 mM EDTA, 6% glycerol, 1 mM DTT, 1 nM DNA, room temperature 60-90 min; 4% PAGE 0.4x TBE at 4 C
Sequence of FANCD2-10A;FANCI (Q9BXW9 whole entry S64A/S178A/S319A/T596A/T608A/S705A/S1257A/S1401A/S1404A/S1418A, chain 1 of 2): as the sequence (Q9BXW9 whole entry S64D/S178D/S319D/T596D/T608D/S705D/S1257D/S1401D/S1404D/S1418D, chain 1 of 2) above, with D64A, D178A, D319A, D596A, D608A, D705A, D1257A, D1401A, D1404A, D1418A counted along it
Sequence of FANCD2-10A;FANCI (Q9NVI1 whole entry, chain 2 of 2): as the sequence (Q9NVI1 whole entry, chain 2 of 2) above

[3] = target: FANCD2 WT;FANCI (human?;human?, UniProt Q9BXW9;Q9NVI1 1-1451;1-1328, |); assay: as above
Sequence of FANCD2 WT;FANCI (Q9BXW9 whole entry, chain 1 of 2): as the sequence (Q9BXW9 whole entry S64D/S178D/S319D/T596D/T608D/S705D/S1257D/S1401D/S1404D/S1418D, chain 1 of 2) above, with D64S, D178S, D319S, D596T, D608T, D705S, D1257S, D1401S, D1404S, D1418S counted along it
Sequence of FANCD2 WT;FANCI (Q9NVI1 whole entry, chain 2 of 2): as the sequence (Q9NVI1 whole entry, chain 2 of 2) above

Measured: binding result

B1: ICL14 Y-shaped DNA (stalled fork mimic) (dsDNA)
DNA 1: CATTGTGAATTCGCCTCTCTGTCTAGCCGAAGCTCGAAACGATCTTGTGC
DNA 2: GTCCATCAAAGTTCGACTGTGCGGCTAGACAGAGAGGCGAATTCACAATG
binds: all assays above

— publication PMC10933773, “Phosphorylation by ATR triggers FANCD2 chromatin loading and activates the Fanconi anemia pathway”
